Measured values from patent US20230293638A1 (Eli Lilly, published 2023).
Numbered stars: 1 amine (or outer) side, 2 acyl side, 3 side chain; on linkers, the order of the positions; unused ones are H or OH. Square brackets hold non-standard residues; d marks the D form. Side chains are listed from the residue outwards. Ends that are not written are not given here. * marks the point of attachment. C20 diacid = O=C(O)CCCCCCCCCCCCCCCCCCC(=O)*; γGlu = O=C(O)[C@H](CCC(=O)[*:2])N[*:1]; αMeF = C[C@](N)(Cc1ccccc1)C(=O)O; αMeL = CC(C)C[C@](C)(N)C(=O)O; cTA = not defined here; AEEA = NCCOCCOCC(=O)O; Aib = CC(C)(N)C(=O)O

B1: Peptide 123 (peptide)
peptide: YXEGTXTSDYSIXLDKKAQXEFIEYLIEGGPSSG
modifications: Aib2; αMeF6; αMeL13; K17((2-[2-(2-Amino-ethoxy)-ethoxy]-acetyl)2-(γGlu)-CO-(CH2)18-CO2H); Aib20; C-terminal NH2
B2: Peptide 115 (peptide)
peptide: YXEGTXTSDYSIXLDEKAQXAFIEYLIEGGPSSGAPPPS
modifications: Aib2; αMeF6; αMeL13; K17((2-[2-(2-Amino-ethoxy)-ethoxy]-acetyl)2-(γGlu)-CO-(CH2)18-CO2H); Aib20; C-terminal NH2
B3: Peptide 129 (peptide)
peptide: YXEGTXTSDLSILLDKKAQXAFIEYLIEGGPSSGAPPPS
modifications: Aib2; αMeF6; K17((2-[2-(2-Amino-ethoxy)-ethoxy]-acetyl)2-(γGlu)-CO-(CH2)18-CO2H); Aib20; C-terminal NH2
B4: Peptide 140 (peptide)
peptide: YXEGTXTSDYSIXLDKKAQXDFIEYLIEGGPSSGAPPPS
modifications: Aib2; αMeF6; αMeL13; K17((2-[2-(2-Amino-ethoxy)-ethoxy]-acetyl)2-(γGlu)-CO-(CH2)18-CO2H); Aib20; C-terminal NH2
B5: Peptide 126 (peptide)
peptide: YXEGTXTSDYSIXLDKKAQXAFIEYLIEAGPSSGAPPPS
modifications: Aib2; αMeF6; αMeL13; K17((2-[2-(2-Amino-ethoxy)-ethoxy]-acetyl)2-(γGlu)-CO-(CH2)18-CO2H); Aib20; C-terminal NH2
B6: Peptide 118 (peptide)
peptide: YXEGTXTSDYSIXLDEKAQXEFIEYLIEGGPSSGAPPPS
modifications: Aib2; αMeF(2F)6; αMeL13; K17((2-[2-(2-Amino-ethoxy)-ethoxy]-acetyl)2-(γGlu)-CO-(CH2)18-CO2H); Aib20; C-terminal NH2
B7: Peptide 137 (peptide)
peptide: YXEGTXTSDYSIXLDKKAQXXFIEYLIEGGPSSGAPPPS
modifications: Aib2; αMeF6; αMeL13; K17((2-[2-(2-Amino-ethoxy)-ethoxy]-acetyl)2-(γGlu)-CO-(CH2)18-CO2H); Aib20; Aad21; C-terminal NH2
B8: Peptide 143 (peptide)
peptide: YXEGTXTSDYSIXLDKKAQXXFIEYLIEGGPSSGAPPPS
modifications: Aib2; αMeF6; αMeL13; K17((2-[2-(2-Amino-ethoxy)-ethoxy]-acetyl)2-(γGlu)-CO-(CH2)18-CO2H); Aib20; Aib21; C-terminal NH2
B9: Peptide 139 (peptide)
peptide: YXEGTXTSDYSIXLDKKAQXTFIEYLIEGGPSSGAPPPS
modifications: Aib2; αMeF6; αMeL13; K17((2-[2-(2-Amino-ethoxy)-ethoxy]-acetyl)2-(γGlu)-CO-(CH2)18-CO2H); Aib20; C-terminal NH2
B10: Peptide 125 (peptide)
peptide: YXEGTXTSDYSIXLDKKAQXAFIEYLIEGGPSSGAPPPS
modifications: Aib2; αMeF6; αMeL13; K17((2-[2-(2-Amino-ethoxy)-ethoxy]-acetyl)2-(γGlu)2-CO-(CH2)18-CO2H); Aib20; C-terminal NH2
B11: Peptide 128 (peptide)
peptide: YXEGTXTSDHSILLDKKAQXAFIEYLIEGGPSSGAPPPS
modifications: Aib2; αMeF6; K17((2-[2-(2-Amino-ethoxy)-ethoxy]-acetyl)2-(γGlu)-CO-(CH2)18-CO2H); Aib20; C-terminal NH2
B12: Peptide 144 (peptide)
peptide: YXEGTXTSDYSIXLDKKAQHXFIEYLIEGGPSSGAPPPS
modifications: Aib2; αMeF6; αMeL13; K17((2-[2-(2-Amino-ethoxy)-ethoxy]-acetyl)2-(γGlu)-CO-(CH2)18-CO2H); Aib21; C-terminal NH2
B13: Peptide 9 (peptide)
peptide: Y[Aib]EGTFTSDYSILLDSK([AEEA-AEEA-γGlu-C20 diacid])AQ[Aib]AFIEYLIEGGPSSGAPPPS-NH2
modifications: N-terminus assumed
SMILES: CC[C@H](C)[C@H](NC(=O)[C@H](CC(C)C)NC(=O)[C@H](Cc1ccc(O)cc1)NC(=O)[C@H](CCC(=O)O)NC(=O)[C@@H](NC(=O)[C@H](Cc1ccccc1)NC(=O)[C@H](C)NC(=O)C(C)(C)NC(=O)[C@H](CCC(N)=O)NC(=O)[C@H](C)NC(=O)[C@H](CCCCNC(=O)COCCOCCNC(=O)COCCOCCNC(=O)CC[C@H](NC(=O)CCCCCCCCCCCCCCCCCCC(=O)O)C(=O)O)NC(=O)[C@H](CO)NC(=O)[C@H](CC(=O)O)NC(=O)[C@H](CC(C)C)NC(=O)[C@H](CC(C)C)NC(=O)[C@@H](NC(=O)[C@H](CO)NC(=O)[C@H](Cc1ccc(O)cc1)NC(=O)[C@H](CC(=O)O)NC(=O)[C@H](CO)NC(=O)[C@@H](NC(=O)[C@H](Cc1ccccc1)NC(=O)[C@@H](NC(=O)CNC(=O)[C@H](CCC(=O)O)NC(=O)C(C)(C)NC(=O)[C@@H](N)Cc1ccc(O)cc1)[C@@H](C)O)[C@@H](C)O)[C@@H](C)CC)[C@@H](C)CC)C(=O)N[C@@H](CCC(=O)O)C(=O)NCC(=O)NCC(=O)N1CCC[C@H]1C(=O)N[C@@H](CO)C(=O)N[C@@H](CO)C(=O)NCC(=O)N[C@@H](C)C(=O)N1CCC[C@H]1C(=O)N1CCC[C@H]1C(=O)N1CCC[C@H]1C(=O)N[C@@H](CO)C(N)=O

molecular target: human GLP-1 receptor (human, UniProt P43220 24-463); experiment: cell-based or functional assay

First: Y[Aib][cTA]GT[αMeF]TSDYSI[αMeL]LDEK([AEEA-AEEA-γGlu-C20 diacid])AQ[Aib]AFIEYLIEGGPSSGAPPPS-NH2 (reading uncertain) [Peptide 120]
Second: B1
The “hGLPIR cAMP EC50 ratio” value of the first is lower: 0.319 for the first, 1.58 for the second.

Going from B2 to B3, the “hGLPIR cAMP EC50 ratio” value falls from 0.743 to 0.543.

First: B4
Second: B5
The “hGLPIR cAMP EC50 ratio” value of the first is higher: 1.16 for the first, 0.869 for the second.

First: B6
Second: B7
The “hGLPIR cAMP EC50 ratio” value of the first is lower: 1.13 for the first, 1.25 for the second.

Going from B8 to B9, the “hGLPIR cAMP EC50 ratio” value rises from 0.714 to 1.13.

First: B10
Second: B11
The “hGLPIR cAMP EC50 ratio” value of the first is higher: 1.31 for the first, 0.7 for the second.

Going from B12 to B13, the “hGLPIR cAMP EC50 ratio” value falls from 0.851 to 0.314.
